Patent US20110300138A1 (published 2011)
Read-outs that look alike come from different tables or passages of the source. Each block holds one substance with its values, some of them ahead of it.

Key:
[1] = target: human TSH receptor (full length, wild type) expressed in CHO cells (human) (UniProt P16473); test: cell-based or functional assay
[2] = target: human TSHR (wild type, full length) expressed in CHO cells (human) (UniProt P16473); test: cell-based or functional assay
[3] = target: human TSH receptor (TSHR), wild type, expressed in CHO cells (human) (UniProt P16473); test: cell-based or functional assay
[4] = target: human TSH receptor (full length, wild type) expressed in CHO cells (human) (UniProt P16473); test: cell-based or functional assay; remark: listed apart in the source
[5] = target: human TSH receptor (wild type), expressed on transfected CHO cells (human) (UniProt P16473); test: cell-based or functional assay
[6] = target: human TSHR (wild type, full length) expressed in CHO cells (human) (UniProt P16473); test: cell-based or functional assay; remark: listed apart in the source
[7] = target: human TSHR expressed in CHO cells (human) (UniProt P16473); test: cell-based or functional assay
[8] = target: human TSH receptor (full length, wild type) expressed on CHO cells (human) (UniProt P16473); test: cell-based or functional assay
[9] = target: human TSHR (thyroid stimulating hormone receptor) expressed in transfected CHO cells (human) (UniProt P16473); test: cell-based or functional assay
[10] = target: TSHR260-alkaline phosphatase (TSHR260-AP) (human) (UniProt P05187); test: TSHR260-AP bridge ELISA, full length TSHR on wells; 250 µg/mL, diluted in HBD
[11] = target: TSHR260-alkaline phosphatase (TSHR260-AP) (human) (UniProt P05187); test: TSHR260-AP bridge ELISA, full length TSHR on wells; 0.01 µg/mL, diluted in HBD
[12] = target: TSHR260-alkaline phosphatase (TSHR260-AP) (human) (UniProt P05187); test: TSHR260-AP bridge ELISA, full length TSHR on wells; 0.05 µg/mL, diluted in HBD
[13] = target: TSHR260-alkaline phosphatase (TSHR260-AP) (human) (UniProt P05187); test: TSHR260-AP bridge ELISA, full length TSHR on wells; 10 µg/mL, diluted in assay buffer
[14] = target: TSHR260-alkaline phosphatase (TSHR260-AP) (human) (UniProt P05187); test: TSHR260-AP bridge ELISA, full length TSHR on wells; 0.1 µg/mL, diluted in assay buffer
TSHR260-AP (human) [15] = test: TSHR260-AP bridge ELISA (full length TSHR on wells, TSHR260-AP in solution); IgG 10 µg/mL diluted in HBD serum
TSHR260-AP (human) [16] = test: TSHR260-AP bridge ELISA (full length TSHR on wells, TSHR260-AP in solution); IgG 0.05 µg/mL diluted in HBD serum
TSHR260-AP (human) [17] = test: TSHR260-AP bridge ELISA (full length TSHR on wells, TSHR260-AP in solution); IgG 0.5 µg/mL diluted in assay buffer
TSHR260-AP (human) [18] = test: TSHR260-AP bridge ELISA (full length TSHR on wells, TSHR260-AP in solution); IgG 250 µg/mL diluted in assay buffer
TSHR260-AP (human) [19] = test: TSHR260-AP bridge ELISA (full length TSHR on wells, TSHR260-AP in solution); IgG 0.01 µg/mL diluted in assay buffer

M22 IgG (antibody), sequence (VH): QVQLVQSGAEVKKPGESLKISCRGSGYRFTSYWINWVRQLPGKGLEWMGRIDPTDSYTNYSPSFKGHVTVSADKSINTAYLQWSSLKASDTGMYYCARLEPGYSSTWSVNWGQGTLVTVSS
M22 IgG (antibody), sequence (V domain): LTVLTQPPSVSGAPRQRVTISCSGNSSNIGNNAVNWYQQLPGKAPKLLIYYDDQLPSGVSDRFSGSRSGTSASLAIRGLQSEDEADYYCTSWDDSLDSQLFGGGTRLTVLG

- % Inhibition; T10 serum + 100 µg/mL 9D33 IgG [1]: 95.4%
- % Inhibition; T11 serum + 100 µg/mL 9D33 IgG [1]: 87.1%
- % Inhibition; T12 serum + 100 µg/mL 9D33 IgG [1]: 91.7%
- Cyclic AMP concentration; 100 µg/mL 9D33 IgG alone [1]: 1.9 pmol/mL
- Cyclic AMP concentration; HBD + 100 µg/mL 9D33 IgG [1]: 3.2 pmol/mL
- Cyclic AMP concentration; T10 serum + 100 µg/mL 9D33 IgG [1]: 2.6 pmol/mL
- Cyclic AMP concentration; T11 serum + 100 µg/mL 9D33 IgG [1]: 5.3 pmol/mL
- Cyclic AMP concentration; T12 serum + 100 µg/mL 9D33 IgG [1]: 3.6 pmol/mL
- % Inhibition of T13 serum stimulation; 100 µg/mL 9D33 IgG [2]: 92.2%
- % Inhibition of T14 serum stimulation; 100 µg/mL 9D33 IgG [2]: 89.7%
- % Inhibition of T15 serum stimulation; 100 µg/mL 9D33 IgG [2]: 92.4%
- Cyclic AMP concentration; 100 µg/mL 9D33 IgG alone [2]: 2.3 pmol/mL
- Cyclic AMP concentration; HBD + 100 µg/mL 9D33 IgG [2]: 3.3 pmol/mL
- Cyclic AMP concentration; T13 serum + 100 µg/mL 9D33 IgG [2]: 3.8 pmol/mL
- Cyclic AMP concentration; T14 serum + 100 µg/mL 9D33 IgG [2]: 2.8 pmol/mL
- Cyclic AMP concentration; T15 serum + 100 µg/mL 9D33 IgG [2]: 3.9 pmol/mL
- % Inhibition of constitutive activity; 0.001 µg/mL 9D33 IgG [3]: 0%
- % Inhibition of constitutive activity; 0.01 µg/mL 9D33 IgG [3]: 0%
- % Inhibition of constitutive activity; 0.1 µg/mL 9D33 IgG [3]: 0%
- % Inhibition of constitutive activity; 0.3 µg/mL 9D33 IgG [3]: 0%
- % Inhibition of constitutive activity; 1 µg/mL 9D33 IgG [3]: 0%
- % Inhibition of constitutive activity; 3 µg/mL 9D33 IgG [3]: 0%
- % Inhibition of constitutive activity; 10 µg/mL 9D33 IgG [3]: 0%
- % Inhibition of constitutive activity; 100 µg/mL 9D33 IgG [3]: 0%
- Cyclic AMP concentration (constitutive activity); 0.001 µg/mL 9D33 IgG [3]: 18.8 pmol/mL
- Cyclic AMP concentration (constitutive activity); 0.01 µg/mL 9D33 IgG [3]: 20.3 pmol/mL
- Cyclic AMP concentration (constitutive activity); 0.1 µg/mL 9D33 IgG [3]: 23.9 pmol/mL
- Cyclic AMP concentration (constitutive activity); 0.3 µg/mL 9D33 IgG [3]: 26.4 pmol/mL
- Cyclic AMP concentration (constitutive activity); 1 µg/mL 9D33 IgG [3]: 35.5 pmol/mL
- Cyclic AMP concentration (constitutive activity); 3 µg/mL 9D33 IgG [3]: 32.3 pmol/mL
- Cyclic AMP concentration (constitutive activity); 10 µg/mL 9D33 IgG [3]: 34.3 pmol/mL
- Cyclic AMP concentration (constitutive activity); 100 µg/mL 9D33 IgG [3]: 38 pmol/mL
- % Inhibition; T1 serum + 100 µg/mL 9D33 IgG [4]: 95.4%
- % Inhibition; T2 serum + 100 µg/mL 9D33 IgG [4]: 96.8%
- % Inhibition; T3 serum + 100 µg/mL 9D33 IgG [4]: 94.2%
- Cyclic AMP concentration; 100 µg/mL 9D33 IgG alone [4]: 2.1 pmol/mL
- Cyclic AMP concentration; HBD + 100 µg/mL 9D33 IgG [4]: 1.9 pmol/mL
- Cyclic AMP concentration; T1 serum + 100 µg/mL 9D33 IgG [4]: 4.6 pmol/mL
- Cyclic AMP concentration; T2 serum + 100 µg/mL 9D33 IgG [4]: 2 pmol/mL
- Cyclic AMP concentration; T3 serum + 100 µg/mL 9D33 IgG [4]: 3.7 pmol/mL
- % Inhibition; 9D33 IgG 0.01 µg/mL + T11 [5]: 17.1%
- % Inhibition; 9D33 IgG 0.1 µg/mL + T11 [5]: 50.4%
- % Inhibition; 9D33 IgG 1 µg/mL + T11 [5]: 87.7%
- % Inhibition; 9D33 IgG 10 µg/mL + T11 [5]: 90.1%
- % Inhibition; 9D33 IgG 100 µg/mL + T11 [5]: 94.8%
- Cyclic AMP concentration; 9D33 IgG 0.01 µg/mL + T11 [5]: 20.9 pmol/mL
- Cyclic AMP concentration; 9D33 IgG 0.1 µg/mL + T11 [5]: 12.5 pmol/mL
- Cyclic AMP concentration; 9D33 IgG 1 µg/mL + T11 [5]: 3.1 pmol/mL
- Cyclic AMP concentration; 9D33 IgG 10 µg/mL + T11 [5]: 2.5 pmol/mL
- Cyclic AMP concentration; 9D33 IgG 100 µg/mL + T11 [5]: 2.1 pmol/mL
- Cyclic AMP concentration; 9D33 IgG 100 µg/mL alone [5]: 1.3 pmol/mL
- % Inhibition of T5 serum stimulation; 0.01 µg/mL 9D33 IgG [6]: 23%
- % Inhibition of T5 serum stimulation; 0.1 µg/mL 9D33 IgG [6]: 55.7%
- % Inhibition of T5 serum stimulation; 1 µg/mL 9D33 IgG [6]: 93.6%
- % Inhibition of T5 serum stimulation; 10 µg/mL 9D33 IgG [6]: 96.4%
- % Inhibition of T5 serum stimulation; 100 µg/mL 9D33 IgG [6]: 95.3%
- Cyclic AMP concentration; 0.01 µg/mL 9D33 IgG + T5 [6]: 49.2 pmol/mL
- Cyclic AMP concentration; 0.1 µg/mL 9D33 IgG + T5 [6]: 28.3 pmol/mL
- Cyclic AMP concentration; 1 µg/mL 9D33 IgG + T5 [6]: 4.1 pmol/mL
- Cyclic AMP concentration; 10 µg/mL 9D33 IgG + T5 [6]: 2.3 pmol/mL
- Cyclic AMP concentration; 100 µg/mL 9D33 IgG + T5 [6]: 3 pmol/mL
- Cyclic AMP concentration; 100 µg/mL 9D33 IgG alone [6]: 2.4 pmol/mL
- % Inhibition; 3 ng/mL pTSH + 0.001 µg/mL 9D33 IgG [7]: 13%
- % Inhibition; 3 ng/mL pTSH + 0.01 µg/mL 9D33 IgG [7]: 5%
- % Inhibition; 3 ng/mL pTSH + 0.1 µg/mL 9D33 IgG [7]: 28%
- % Inhibition; 3 ng/mL pTSH + 1 µg/mL 9D33 IgG [7]: 67%
- % Inhibition; 3 ng/mL pTSH + 10 µg/mL 9D33 IgG [7]: 87%
- % Inhibition; 3 ng/mL pTSH + 100 µg/mL 9D33 IgG [7]: 95%
Substance: 9D33 IgG (antibody)

- Cyclic AMP concentration at 0.3 ng/mL M22 IgG [4]: 2.36 pmol/mL
- Cyclic AMP concentration at 1 ng/mL M22 IgG [4]: 12 pmol/mL
- Cyclic AMP concentration at 3 ng/mL M22 IgG [4]: 24.6 pmol/mL
- Cyclic AMP concentration at 10 ng/mL M22 IgG [4]: 58.9 pmol/mL
- Cyclic AMP production concentration at 1 ng/mL M22 IgG [4]: 8.1 pmol/mL
- Cyclic AMP production concentration at 3 ng/mL M22 IgG [4]: 24.3 pmol/mL
- Cyclic AMP production concentration at 10 ng/mL M22 IgG [4]: 50.3 pmol/mL
- Cyclic AMP production concentration at 30 ng/mL M22 IgG [4]: 60.9 pmol/mL
- Cyclic AMP production concentration at 100 ng/mL M22 IgG [4]: 64.6 pmol/mL
- Cyclic AMP stimulating activity at 1 ng/mL M22 IgG, units/L (NIBSC 90/672) [4]: 0.3 units/L
- Cyclic AMP stimulating activity at 1 ng/mL M22 IgG, units/mg (NIBSC 90/672) [4]: 300 units/mg
- Cyclic AMP stimulating activity at 3 ng/mL M22 IgG, units/L (NIBSC 90/672) [4]: 0.8 units/L
- Cyclic AMP stimulating activity at 3 ng/mL M22 IgG, units/mg (NIBSC 90/672) [4]: 267 units/mg
- Cyclic AMP stimulating activity of M22 IgG, mean units/mg (NIBSC 90/672; mean of 1, 3 and 10 ng/mL) [4]: 286 units/mg
- Cyclic AMP concentration; 3 ng/mL M22 IgG alone [8]: 33.1 pmol/mL
- Cyclic AMP concentration; 3 ng/mL M22 IgG [9]: 44.4 pmol/mL
- Mean absorbance at 405 nm (absorbance at 405 nm) [10]: 0.833
- Mean absorbance at 405 nm (absorbance at 405 nm) [11]: 0.03
- Mean absorbance at 405 nm (absorbance at 405 nm) [12]: 0.204
- Mean absorbance at 405 nm (absorbance at 405 nm) [13]: 0.872
- Mean absorbance at 405 nm (absorbance at 405 nm) [14]: 0.653
- Mean absorbance at 405 nm (absorbance at 405 nm) (TSHR260-AP (human) [15]): 0.796
- Mean absorbance at 405 nm (absorbance at 405 nm) (TSHR260-AP (human) [16]): 0.204
- Mean absorbance at 405 nm (absorbance at 405 nm) (TSHR260-AP (human) [17]): 0.776
- Mean absorbance at 405 nm (absorbance at 405 nm) (TSHR260-AP (human) [18]): 1.01
- Mean absorbance at 405 nm (absorbance at 405 nm) (TSHR260-AP (human) [19]): 0.101
Substance: M22 IgG (antibody)
